Experiment: Km and kcat of expressed HPPDs (HPLC/UV quantitation of homogentisate)
Type: biochemical, Avena sativa
Settings: for Km / kcat: HPPDs expressed in extracts, 25° C., pH 7.0; for kcat: one active-site per dimer assumed; for Rate: kcat relative to non-mutated HPPD SEQ ID NO:14: for V217I, L271I, L271V, V258M, A326R estimated from initial rates in cell extracts, pH 7.0, 25° C., 120 μM HPP
Protocol: The assay solution was transferred to Chromacol 03-CVG HPLC vials, sealed and the amount of homogentisate formed in a 40 μl aliquot determined by injection onto a reverse phase Aqua C18 5μ 75×4.6 mm HPLC column running 5.5% acetonitrile 0.1% TFA (Buffer A) at 1.5 ml/min. The column was eluted at 1.5 ml/minute using a 2 minute wash in buffer A, followed by a 2 minute wash in a 30/70 mixture of buffer A and 100% Acetonitrile, and a further 3.5 minute wash in buffer A. The elution of homogentisate was monitored by UV at 292 nm and the amount formed in each reaction quantified by comparison with a standard calibration curve.
Km and Vmax values were determined (for example FIG. 1) using a non linear least squares fit using Grafit 4™ software (Erithacus Software, Middlesex, UK). Kcat values were determined by dividing the maximum rate, Vmax expressed in nmol/second by the number of nmoles of HPPD enzyme (based on the concentration determined by active-site titration).
Experiments were carried out as described for Table 4. ‘Sulc’ denotes sulcotrione and ‘nd’ means ‘no data’. For V217I, L271I, L271V, V258M and A326R, the relative values of kcat were estimated from comparisons of the initial rates in cell extracts of similarly prepared and expressed HPPDs in conventional enzyme activity assays at pH 7.0, 25° C. and at a substrate concentration of 120 μM HPP.

Molecule | Km | kcat | Rate: kcat relative to non-mutated HPPD SEQ ID NO:14
SEQ ID #24: SEQ ID NO:14 with substitution of M for L within the sequence motif G(I,V)LVDRD (protein, listed as Avena sativa) MPPTPATATGAAAAAVTPEHAARSFPRVVRVNPRSDRFPVLSFHHVELWCADAASAAGRFSFALGAPLAARSDLSTGNSAHASLLLRSGALAFLFTAPYAPPPQEAATAATASIPSFSADAARTFAAAHGLAVRSVGVRVADAAEAFRVSVAGGARPAFAPADLGHGFGLAEVELYGDVVLRFVSYPDETDLPFLPGFERVSSPGAVDYGLTRFDHVVGNVPEMAPVIDYMKGFLGFHEFAEFTAEDVGTTESGLNSVVLANNSEAVLLPLNEPVHGTKRRSQIQTYLEYHGGPGVQHIALASNDVLRTLREMRARTPMGGFEFMAPPQAKYYEGVRRIAGDVLSEEQIKECQELGVMVDRDDQGVLLQIFTKPVGDRPTFFLEMIQRIGCMEKDEVGQEYQKGGCGGFGKGNFSELFKSIEDYEKSLEVKQSVVAQKS | 4.74 µM | 4.35 s⁻¹ | 
SEQ ID #14: HPPD derived from Avena sativa; single deletion variant of the Avena sativa HPPD (protein, mutant HPPD polypeptide) MPPTPATATGAAAAAVTPEHAARSFPRVVRVNPRSDRFPVLSFHHVELWCADAASAAGRFSFALGAPLAARSDLSTGNSAHASLLLRSGALAFLFTAPYAPPPQEAATAATASIPSFSADAARTFAAAHGLAVRSVGVRVADAAEAFRVSVAGGARPAFAPADLGHGFGLAEVELYGDVVLRFVSYPDETDLPFLPGFERVSSPGAVDYGLTRFDHVVGNVPEMAPVIDYMKGFLGFHEFAEFTAEDVGTTESGLNSVVLANNSEAVLLPLNEPVHGTKRRSQIQTYLEYHGGPGVQHIALASNDVLRTLREMRARTPMGGFEFMAPPQAKYYEGVRRIAGDVLSEEQIKECQELGVLVDRDDQGVLLQIFTKPVGDRPTFFLEMIQRIGCMEKDEVGQEYQKGGCGGFGKGNFSELFKSIEDYEKSLEVKQSVVAQKS | 5.38 µM | 6.46 s⁻¹ | 1
L281I: mutant of HPPD SEQ ID NO:14, called L271I in the text (protein, mutant HPPD polypeptide) MPPTPATATGAAAAAVTPEHAARSFPRVVRVNPRSDRFPVLSFHHVELWCADAASAAGRFSFALGAPLAARSDLSTGNSAHASLLLRSGALAFLFTAPYAPPPQEAATAATASIPSFSADAARTFAAAHGLAVRSVGVRVADAAEAFRVSVAGGARPAFAPADLGHGFGLAEVELYGDVVLRFVSYPDETDLPFLPGFERVSSPGAVDYGLTRFDHVVGNVPEMAPVIDYMKGFLGFHEFAEFTAEDVGTTESGLNSVVLANNSEAVLLPINEPVHGTKRRSQIQTYLEYHGGPGVQHIALASNDVLRTLREMRARTPMGGFEFMAPPQAKYYEGVRRIAGDVLSEEQIKECQELGVLVDRDDQGVLLQIFTKPVGDRPTFFLEMIQRIGCMEKDEVGQEYQKGGCGGFGKGNFSELFKSIEDYEKSLEVKQSVVAQKS |  |  | 1.7
SEQ ID #21: SEQ ID NO:14 with substitution of V for I within the sequence motif SQIQTY (protein, listed as Avena sativa) MPPTPATATGAAAAAVTPEHAARSFPRVVRVNPRSDRFPVLSFHHVELWCADAASAAGRFSFALGAPLAARSDLSTGNSAHASLLLRSGALAFLFTAPYAPPPQEAATAATASIPSFSADAARTFAAAHGLAVRSVGVRVADAAEAFRVSVAGGARPAFAPADLGHGFGLAEVELYGDVVLRFVSYPDETDLPFLPGFERVSSPGAVDYGLTRFDHVVGNVPEMAPVIDYMKGFLGFHEFAEFTAEDVGTTESGLNSVVLANNSEAVLLPLNEPVHGTKRRSQVQTYLEYHGGPGVQHIALASNDVLRTLREMRARTPMGGFEFMAPPQAKYYEGVRRIAGDVLSEEQIKECQELGVLVDRDDQGVLLQIFTKPVGDRPTFFLEMIQRIGCMEKDEVGQEYQKGGCGGFGKGNFSELFKSIEDYEKSLEVKQSVVAQKS | 5.98 µM | 5.47 s⁻¹ | 
V217I: V217I mutant of HPPD SEQ ID NO:14 (protein, mutant HPPD polypeptide) MPPTPATATGAAAAAVTPEHAARSFPRVVRVNPRSDRFPVLSFHHVELWCADAASAAGRFSFALGAPLAARSDLSTGNSAHASLLLRSGALAFLFTAPYAPPPQEAATAATASIPSFSADAARTFAAAHGLAVRSVGVRVADAAEAFRVSVAGGARPAFAPADLGHGFGLAEVELYGDVVLRFVSYPDETDLPFLPGFERVSSPGAVDYGLTRFDHIVGNVPEMAPVIDYMKGFLGFHEFAEFTAEDVGTTESGLNSVVLANNSEAVLLPLNEPVHGTKRRSQIQTYLEYHGGPGVQHIALASNDVLRTLREMRARTPMGGFEFMAPPQAKYYEGVRRIAGDVLSEEQIKECQELGVLVDRDDQGVLLQIFTKPVGDRPTFFLEMIQRIGCMEKDEVGQEYQKGGCGGFGKGNFSELFKSIEDYEKSLEVKQSVVAQKS |  |  | 1.1
SEQ ID #18: SEQ ID NO:14 with substitution of T for I within the sequence motif SQIQTY (protein, listed as Avena sativa) MPPTPATATGAAAAAVTPEHAARSFPRVVRVNPRSDRFPVLSFHHVELWCADAASAAGRFSFALGAPLAARSDLSTGNSAHASLLLRSGALAFLFTAPYAPPPQEAATAATASIPSFSADAARTFAAAHGLAVRSVGVRVADAAEAFRVSVAGGARPAFAPADLGHGFGLAEVELYGDVVLRFVSYPDETDLPFLPGFERVSSPGAVDYGLTRFDHVVGNVPEMAPVIDYMKGFLGFHEFAEFTAEDVGTTESGLNSVVLANNSEAVLLPLNEPVHGTKRRSQTQTYLEYHGGPGVQHIALASNDVLRTLREMRARTPMGGFEFMAPPQAKYYEGVRRIAGDVLSEEQIKECQELGVLVDRDDQGVLLQIFTKPVGDRPTFFLEMIQRIGCMEKDEVGQEYQKGGCGGFGKGNFSELFKSIEDYEKSLEVKQSVVAQKS | 36 µM | 17.94 s⁻¹ | 
L281V: mutant of HPPD SEQ ID NO:14, called L271V in the text (protein, mutant HPPD polypeptide) MPPTPATATGAAAAAVTPEHAARSFPRVVRVNPRSDRFPVLSFHHVELWCADAASAAGRFSFALGAPLAARSDLSTGNSAHASLLLRSGALAFLFTAPYAPPPQEAATAATASIPSFSADAARTFAAAHGLAVRSVGVRVADAAEAFRVSVAGGARPAFAPADLGHGFGLAEVELYGDVVLRFVSYPDETDLPFLPGFERVSSPGAVDYGLTRFDHVVGNVPEMAPVIDYMKGFLGFHEFAEFTAEDVGTTESGLNSVVLANNSEAVLLPVNEPVHGTKRRSQIQTYLEYHGGPGVQHIALASNDVLRTLREMRARTPMGGFEFMAPPQAKYYEGVRRIAGDVLSEEQIKECQELGVLVDRDDQGVLLQIFTKPVGDRPTFFLEMIQRIGCMEKDEVGQEYQKGGCGGFGKGNFSELFKSIEDYEKSLEVKQSVVAQKS |  |  | 2
SEQ ID #22: SEQ ID NO:14 with substitution of M for L within the sequence motif SGLNS (protein, listed as Avena sativa) MPPTPATATGAAAAAVTPEHAARSFPRVVRVNPRSDRFPVLSFHHVELWCADAASAAGRFSFALGAPLAARSDLSTGNSAHASLLLRSGALAFLFTAPYAPPPQEAATAATASIPSFSADAARTFAAAHGLAVRSVGVRVADAAEAFRVSVAGGARPAFAPADLGHGFGLAEVELYGDVVLRFVSYPDETDLPFLPGFERVSSPGAVDYGLTRFDHVVGNVPEMAPVIDYMKGFLGFHEFAEFTAEDVGTTESGMNSVVLANNSEAVLLPLNEPVHGTKRRSQIQTYLEYHGGPGVQHIALASNDVLRTLREMRARTPMGGFEFMAPPQAKYYEGVRRIAGDVLSEEQIKECQELGVLVDRDDQGVLLQIFTKPVGDRPTFFLEMIQRIGCMEKDEVGQEYQKGGCGGFGKGNFSELFKSIEDYEKSLEVKQSVVAQKS | 12.4 µM | 5.79 s⁻¹ | 
SEQ ID #26: SEQ ID NO:14 with M for L within G(I,V)LVDR and M for L within SGLNS (protein, listed as Avena sativa) MPPTPATATGAAAAAVTPEHAARSFPRVVRVNPRSDRFPVLSFHHVELWCADAASAAGRFSFALGAPLAARSDLSTGNSAHASLLLRSGALAFLFTAPYAPPPQEAATAATASIPSFSADAARTFAAAHGLAVRSVGVRVADAAEAFRVSVAGGARPAFAPADLGHGFGLAEVELYGDVVLRFVSYPDETDLPFLPGFERVSSPGAVDYGLTRFDHVVGNVPEMAPVIDYMKGFLGFHEFAEFTAEDVGTTESGMNSVVLANNSEAVLLPLNEPVHGTKRRSQIQTYLEYHGGPGVQHIALASNDVLRTLREMRARTPMGGFEFMAPPQAKYYEGVRRIAGDVLSEEQIKECQELGVMVDRDDQGVLLQIFTKPVGDRPTFFLEMIQRIGCMEKDEVGQEYQKGGCGGFGKGNFSELFKSIEDYEKSLEVKQSVVAQKS | 10.6 µM | 4.05 s⁻¹ | 
